# Test results as given in article PMC8151509.
# What was measured:
# [1] = target: C1qCLR_nc2 (wild type, devoid of the additional GPP triplets), P02745;P02747; experiment: SPR; conditions: chain shown with the change; immobilized C1qCLR_nc2; parent: est. 100; read off a plot
# [2] = target: C1qstem_nc2, P02745;P02746; experiment: SPR; conditions: chain shown with the change; immobilized C1qstem_nc2; parent: est. 100; read off a plot
# C1qCLR_nc2 A_R72E = C1qCLR_nc2 A_R72E (UniProt P02745); experiment: SPR; LAIR-1 Ig-like domain injected at increasing concentrations (4-128, 4-256 or 3.125-400 µM) over immobilized C1q, rC1q variants, C1qCLR_nc2 variants or C1qstem_nc2 (CM5, amine coupling); 25 °C; 50 mM Tris, 150 mM NaCl, 2 mM CaCl2, 0.05% surfactant P20, pH 7.5; KD from Req versus concentration, steady-state model
# C1qCLR_nc2 B_K65E = C1qCLR_nc2 B_K65E (UniProt P02745); experiment: as above
# [3] = target: C1qCLR_nc2 (wild type, devoid of the additional GPP triplets) (UniProt P02745); experiment: as above
# C1qstem_nc2 = C1qstem_nc2 (UniProt P02745); experiment: as above
# C1qCLR_nc2 (wild type, devoid of the additional GPP triplets), P02745;P02747, sequence (chain, as listed by the source, chain 1 of 3): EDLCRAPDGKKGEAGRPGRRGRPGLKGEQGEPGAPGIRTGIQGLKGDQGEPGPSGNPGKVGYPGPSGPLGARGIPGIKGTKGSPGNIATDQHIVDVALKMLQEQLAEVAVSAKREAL
# C1qCLR_nc2 (wild type, devoid of the additional GPP triplets), P02745;P02747, sequence (chain, as listed by the source, chain 2 of 3): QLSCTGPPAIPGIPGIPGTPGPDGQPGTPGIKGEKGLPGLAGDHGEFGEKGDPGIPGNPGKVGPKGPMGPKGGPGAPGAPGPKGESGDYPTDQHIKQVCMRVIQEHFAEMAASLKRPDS
# C1qCLR_nc2 (wild type, devoid of the additional GPP triplets), P02745;P02747, sequence (chain, as listed by the source, chain 3 of 3): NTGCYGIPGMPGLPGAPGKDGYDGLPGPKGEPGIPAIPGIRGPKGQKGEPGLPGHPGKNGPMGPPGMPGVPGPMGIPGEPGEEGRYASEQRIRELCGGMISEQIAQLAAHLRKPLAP
# C1qstem_nc2, P02745;P02746, sequence (chain, as listed by the source, chain 1 of 3): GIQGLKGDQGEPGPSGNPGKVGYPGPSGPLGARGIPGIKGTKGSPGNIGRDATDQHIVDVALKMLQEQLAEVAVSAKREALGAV
# C1qstem_nc2, P02745;P02746, sequence (chain, as listed by the source, chain 2 of 3): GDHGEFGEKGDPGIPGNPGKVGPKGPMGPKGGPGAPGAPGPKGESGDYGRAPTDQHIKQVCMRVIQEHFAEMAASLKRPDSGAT
# C1qstem_nc2, P02745;P02746, sequence (chain, as listed by the source, chain 3 of 3): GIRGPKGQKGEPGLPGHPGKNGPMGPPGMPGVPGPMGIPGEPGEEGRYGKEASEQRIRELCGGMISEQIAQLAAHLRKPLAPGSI
Binder,percent of parent (% of LAIR-1 WT binding) [1],percent of parent (% of LAIR-1 WT binding) [2],Kd (C1qCLR_nc2 A_R72E),Kd (C1qCLR_nc2 B_K65E),Kd [3],Kd (C1qstem_nc2)
"LAIR-1 Ig-like domain, wild type, Q6GTX8 P107R (protein) QEEDLPRPSISAEPGTVIPLGSHVTFVCRGPVGVQTFRLERDSRSTYNDTEDVSQASPSESEARFRIDSVREGNAGLYRCIYYKPRKWSEQSDYLELLVKE",60,69,–,–,–,–
"LAIR-1 Ig-like domain, wild type, Q6GTX8 E61A (protein) QEEDLPRPSISAEPGTVIPLGSHVTFVCRGPVGVQTFRLARDSRSTYNDTEDVSQASPSESEARFRIDSVREGNAGLYRCIYYKPPKWSEQSDYLELLVKE",11,6,–,–,–,–
"LAIR-1 Ig-like domain, wild type, Q6GTX8 E72K (protein) QEEDLPRPSISAEPGTVIPLGSHVTFVCRGPVGVQTFRLERDSRSTYNDTKDVSQASPSESEARFRIDSVREGNAGLYRCIYYKPPKWSEQSDYLELLVKE",21,21,–,–,–,–
"LAIR-1 Ig-like domain, wild type, Q6GTX8 I102L (protein) QEEDLPRPSISAEPGTVIPLGSHVTFVCRGPVGVQTFRLERDSRSTYNDTEDVSQASPSESEARFRIDSVREGNAGLYRCLYYKPPKWSEQSDYLELLVKE",21,20,–,–,–,–
"LAIR-1 Ig-like domain, wild type, Q6GTX8 E111K (protein) QEEDLPRPSISAEPGTVIPLGSHVTFVCRGPVGVQTFRLERDSRSTYNDTEDVSQASPSESEARFRIDSVREGNAGLYRCIYYKPPKWSKQSDYLELLVKE",36,34,–,–,–,–
"LAIR-1 Ig-like domain, wild type (domain or fragment) QEEDLPRPSISAEPGTVIPLGSHVTFVCRGPVGVQTFRLERDSRSTYNDTEDVSQASPSESEARFRIDSVREGNAGLYRCIYYKPPKWSEQSDYLELLVKE",–,–,295 µM,189 µM,179 µM,175 µM
